Measurements: patent publication US20090175866A1, “TREATMENT OF B-CELL MALIGNANCIES” (priority 2004, published 2009)

Legend:
FGFR3-Y373C = biological target: T1, FGFR3-Y373C (Homo sapiens, UniProt P22607, Y373C); experiment: FGF-stimulated growth of B9 cells expressing Y373C-FGFR3; format: cell-based
T1 construct: expressed in transfected cells; host or cells: B9 cells
Experimental: (§1) Non-transformed rat chondrocyte cell line expressing PGFR3 in an inducible manner (RCJ-FGFR3) has been described previously (Rauchenberger R. et al. J. Biol. Chem. 2003; 278:38194-205). Cells were maintained in α-Minimum Essential Media supplemented with 15% fetal calf serum (FCS), 2 mM L-Glutamine, 100 U/ml penicillin, 100 μg/ml streptomycin, 600 μg/ml G418 (Gibco BRL, Ontario, Canada), 2 μg/ml Tetracyclin (Sigma, Ontario, Canada), and 50 μg/ml HygromycinB (Gibco BRL). FGFR3 expression was induced by removal of tetracyclin and serum starvation. […]
(§2) Cell viability was assessed by 3-(4,5-dimethylthiazol)-2,5-diphenyl tetrazolium (MTT) or (2,3-bis(2-methoxy-4-nitro-5-sulphophenyl)-5-[(phenylamino) carbonyl]-2H-tetrazolium hydroxide (XTT) dye absorbance where indicated. Cells were seeded in 96-well plates at a density of 20,000 (FDCP-1 cells), 5,000 (B9 cells) or 25,000 cells (MM cell lines) per well in culture medium. Cells were incubated in the absence or presence of one of the following cytokines: 10 ng/ml FGF9 and 5 μg/ml heparin, 1% murine IL-6, 50 ng/ml IGF-1 or 50 ng/ml human IL-6 where indicated and increasing concentrations of PRO-001, control antibody (purified human Fab) or 100 nM PD173074. […]

FGFR3-F384L = biological target: T2, FGFR3-F384L (Homo sapiens, UniProt P22607, F384L); experiment: FGF-stimulated growth of B9 cells expressing FGFR3 mutant F384L; format: cell-based
T2 construct: expressed in transfected cells; host or cells: B9 cells
T2 sequence (P22607 23-806 F384L): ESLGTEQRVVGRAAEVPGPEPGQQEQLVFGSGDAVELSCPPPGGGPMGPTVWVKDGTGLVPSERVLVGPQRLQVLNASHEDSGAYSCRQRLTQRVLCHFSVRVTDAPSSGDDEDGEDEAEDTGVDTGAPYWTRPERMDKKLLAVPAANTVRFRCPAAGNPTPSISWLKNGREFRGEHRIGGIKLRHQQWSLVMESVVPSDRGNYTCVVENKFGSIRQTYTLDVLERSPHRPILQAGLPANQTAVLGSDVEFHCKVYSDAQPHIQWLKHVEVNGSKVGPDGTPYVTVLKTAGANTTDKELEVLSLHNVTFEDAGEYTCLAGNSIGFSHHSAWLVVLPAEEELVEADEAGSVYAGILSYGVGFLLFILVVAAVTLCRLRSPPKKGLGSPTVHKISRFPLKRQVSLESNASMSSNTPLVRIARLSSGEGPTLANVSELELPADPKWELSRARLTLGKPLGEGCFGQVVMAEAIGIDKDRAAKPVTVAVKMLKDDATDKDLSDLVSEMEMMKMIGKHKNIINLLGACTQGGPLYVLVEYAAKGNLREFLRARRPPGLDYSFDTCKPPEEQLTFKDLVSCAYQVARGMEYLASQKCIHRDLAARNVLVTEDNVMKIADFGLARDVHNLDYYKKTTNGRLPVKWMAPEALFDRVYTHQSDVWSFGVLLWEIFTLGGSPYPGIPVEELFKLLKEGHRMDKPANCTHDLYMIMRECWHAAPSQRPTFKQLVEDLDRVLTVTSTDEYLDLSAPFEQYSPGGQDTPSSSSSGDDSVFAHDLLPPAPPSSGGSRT
Experimental: as §1, §2

FDCP-FGFR3^S249C cells = experiment: FDCP-FGFR3^S249C xenograft tumor model in nude mice; format: in vivo; conditions: PRO-001 Fab I.P.
Experimental: FIG. 8B is a graph showing the effect of PRO-001 on an FGFR3-driven xenograft tumor model. Nude mice (3 in each group), were injected S.C. at 2 locations, one on each flank (a—right flank, b—left flank), with 2×10^6 FDCP-FGFR3^S249C cells each. A week later, mice were randomized to receive PRO-001 by I.P. injection according to the schedule described in Table I or PBS as control. Tumor volume was estimated from measurements in 3 dimensions at 22 or 29 days post cell injection.
FDCP-FGFP3^S249C cells were washed 3 times in PBS then resuspended at 2×10^6 cells/200 μl PBS. The cells were injected subcutaneously (S.C.) to CD1 nude adult females (Harlan, Laboratories, Israel) with a 25 G needle at one or both mouse flanks. Treatment was initiated one week post cell inoculation at which time mice were randomized to receive PRO-001 or an equal volume of PBS alone. Dosing was preformed twice weekly by intraperitoneal (I.P.) injection for 3 weeks. Mice were followed every 2-4 days and developing tumors were measured at 3 dimensions using a caliper. Tumor volume was estimated by multiplying these 3 values.
Nude mice were injected subcutaneously at 2 locations; one on each flank, with 2×10^6 FDCP-FGFR3^S249C cells each. One week post cell injection, mice were treated with PRO-001 Fab. […]

T1 sequence (P22607 23-806 Y373C): as the sequence (P22607 23-806 F384L) above, with Y351C, L362F counted along it

B1: PRO-001: human anti-FGFR3 Fab from HuCAL library; VH-CDR3 SEQ ID NO:1, VL-CDR3 SEQ ID NO:10; VH SEQ ID NO:19, VL SEQ ID NO:28 (antibody, V domains shown)
VH: QVQLQQSGPGLVKPSQTLSLTCAISGDSVSSNSAAWNWIRQSPGRGLEWLGRTYYRSKWYNDYAVSVKSRITINPDTSKNQFSLQLNSVTPEDTAVYYCARSYYPDFDYWGQGTLVTVSS
VL: DIELTQPPSVSVAPGQTARISCSGDALGDKYASWYQQKPGQAPVLVIYDDSDRPSGIPERFSGSNSGNTATLTISGTQAEDEADYYCQSYDGPDLWVFGGGTKLTVLGQ
IC50, FGF-stimulated growth of cells expressing Y373C-FGFR3 (FGFR3-Y373C): approximately 3 μg/ml
IC50, FGF-stimulated growth of B9 cells expressing FGFR3 mutant F384L (FGFR3-F384L): approximately 3 μg/ml
Tumor growth relative to control mice (FDCP-FGFR3^S249C cells; four weeks post cell injection, 400-275 μg per dose): 10%
Toxicities and weight loss over the treatment period (FDCP-FGFR3^S249C cells; nude mice): No major toxicities or significant weight loss
